Reference: paper PMC5540154

Target: D. melanogaster Isu (fIscU) (D. melanogaster) (UniProt Q9VHK6)
Test: SEC

stoichiometry N: 2
Substance: D. melanogaster Isu (fIscU) (from UniProt Q9VHK6 1-154) (natural protein)
